According to patent US20100069462A1 (JICHI MEDICAL UNIVERSITY, published 2010):

Target: T1, PHB2-FLAG (human PHB2 protein with a FLAG tag fused to the carboxyl terminus) (human, UniProt O35129 1-299 (mouse entry))
T1 construct: Expressed in HeLa cells; immunoprecipitated with an anti-FLAG antibody from purified mitochondrial fractions; also called prohibitin 2; not shown: FLAG tag at the C-terminus
Test: immunoprecipitation and mass spectrometry on purified HeLa mitochondrial fractions (summary of Example 3)
Protocol: First, immunoprecipitation (IP) analysis and mass spectrometry (MASS analysis) were conducted using purified mitochondrial fractions derived from HeLa cells expressing PHB2-FLAG, which had been prepared in Example 1.
In IP analysis, an immunoprecipitation method was performed using an anti-FLAG antibody, the precipitates were subjected to 12% SDS-PAGE, protein staining was performed, and then proteins that had been co-precipitated with the PHB2-FLAG protein were detected.

T1 sequence (O35129 whole entry, the tested form may be a part): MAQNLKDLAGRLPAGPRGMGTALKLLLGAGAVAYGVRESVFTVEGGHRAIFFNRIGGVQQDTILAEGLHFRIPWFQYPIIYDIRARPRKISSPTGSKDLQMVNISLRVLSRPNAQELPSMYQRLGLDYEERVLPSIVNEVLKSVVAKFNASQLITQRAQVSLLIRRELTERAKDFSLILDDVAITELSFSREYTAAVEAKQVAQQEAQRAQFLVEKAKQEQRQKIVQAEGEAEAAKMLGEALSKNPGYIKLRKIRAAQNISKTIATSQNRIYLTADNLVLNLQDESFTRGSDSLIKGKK

binding result: binds
B1: PHB1 protein (other, human, UniProt P35232 2-272, looked up)
chain: AAKVFESIGKFGLALAVAGGVVNSALYNVDAGHRAVIFDRFRGVQDIVVGEGTHFLIPWVQKPIIFDCRSRPRNVPVITGSKDLQNVNITLRILFRPVASQLPRIFTSIGEDYDERVLPSITTEILKSVVARFDAGELITQRELVSRQVSDDLTERAATFGLILDDVSLTHLTFGKEFTEAVEAKQVAQQEAERARFVVEKAEQQKKAAIISAEGDSKAAELIANSLATAGDGLIELRKLEAAEDIAYQLSRSRNITYLPAGQSVLLQLPQ
notes: Endogenous protein co-precipitated from HeLa mitochondrial fractions; also called prohibitin
